To fix the notation:
B6: Angptl2-FLAG, full-length human Angptl2 secreted from transfected 293T cells (ligand)
chain: QEDGFEGTEEGSPREFIYLNRYKRAGESQDKCTYTFIVPQQRVTGAICVNSKEPEVLLENRVHKQELELLNNELLKQKRQIETLQQLVEVDGGIVSEVKLLRKESRNMNSRVTQLYMQLLHEIIRKRDNALELSQLENRILNQTADMLQLASKYKDLEHKYQHLATLAHNQSEIIAQLEEHCQRVPSARPVPQPPPAAPPRVYQPPTYNRIINQISTNEIQSDQNLKVLPPPLPTMPTLTSLPSSTDKPSGPWRDCLQALEDGHDTSSIYLVKPENTNRLMQVWCDQRHDPGGWTVIQRRLDGSVNFFRNWETYKQGFGNIDGEYWLGLENIYWLTNQGNYKLLVTMEDWSGRKVFAEYASFRLEPESEYYKLRLGRYHGNAGDSFTWHNGKQFTTLDRDHDVYTGNCAHYQKGGWWYNACAHSNLNGVWYRGGHYRSRYQDGVYWAEFRGGSYSLKKVVMMIRPNPNTFH
notes: Runs partly as a high molecular weight (>250 kD) multimer; also called full-length Angptl2; FLAG-tagged Angptl2; not shown: FLAG tag at the C terminus

The target of assay [1] is T1, human LILRB2, wild-type full-length, on cells (human, UniProt Q8N423 22-597).
T1 construct: the assay field says which; also called WT LILRB2; full-length LILRB2
Briefly: flow cytometry, LILRB2 on 293T cells. For orientation: Flow cytometry measures light scatter and fluorescence of single cells or particles in a stream.

In assay [2] the target is T1, human LILRB2, wild-type full-length, on …. Put plainly: flow cytometry, human cord blood mononuclear cells, anti-FLAG-APC and anti-human LILRB2-PE. On the procedure:
(§1) Flow cytometry. […] Cells were harvested at 48 h for analysis. […] Anti-LILRB2-PE was used as indicated. Cells were analyzed using either a FACSCalibur or FACSAria instrument (Becton Dickinson).

Assay [3] has as its target B6. Put plainly: flow cytometry, Angptl2 on 293T cells expressing the mutant. On the procedure:
as §1

For assay [4], the target named is B6. Put plainly: flow cytometry, Angptl2 on 293T cells expressing the domain. On the procedure:
as §1
LILRB2 contains four extracellular immunoglobulin (Ig)-like domains. Takai et al., J Biomed Biotechnol. 2011; 2011:275302. […] To test this hypothesis, a number of domain and site-specific mutations of LILRB2 were generated for the flow cytometry-based cell surface ligand binding assay and chimeric reporter assay.

Assay [5] has as its target T2, full-length LILRB2 with mutations in AA 92-100 (Mut-8 aa) (human).
T2 construct: also called the full-length LILRB2 with the same mutation
Briefly: flow cytometry, Angptl2 on 293T cells expressing mutant LILRB2. On the procedure:
as §1

The target in assay [6] is T3, full-length LILRB2 Y96A on 293T cells (human, UniProt Q8N423 22-597).
T3 construct: also called single mutation in Y96
The description is as above. As to the method: as §1

For assay [7], the target named is T4, full-length LILRB2 G94D on 293T cells (human, UniProt Q8N423 22-597).
T4 construct: also called single mutation in G94
The description is as above. As to the method:
as §1

In assay [8] the target is T5, full-length LILRB2 R95E on 293T cells (human, UniProt Q8N423 22-597).
T5 construct: also called single mutation in R95
The assay is described as above. On the procedure:
as §1

B1: Angptl5-FLAG, secreted (ligand)
chain: NCVHHSTDSSVVNIVEDGSNAKDESKSNDTVCKEDCEESCDVKTKITREEKHFMCRNLQNSIVSYTRSTKKLLRNMMDEQQASLDYLSNQVNELMNRVLLLTTEVFRKQLDPFPHRPVQSHGLDCTDIKDTIGSVTKTPSGLYIIHPEGSSYPFEVMCDMDYRGGGWTVIQKRIDGIIDFQRLWCDYLDGFGDLLGEFWLGLKKIFYIVNQKNTSFMLYVALESEDDTLAYASYDNFWLEDETRFFKMHLGRYSGNAGDAFRGLKKEDNQNAMPFSTSDVDNDGCRPACLVNGQSVKSCSHLHNKTGWWFNECGLANLNGIHHFSGKLLATGIQWGTWTKNNSPVKIKSVSMKIRRMYNPYFK
notes: read as Angptl5; not shown: FLAG tag at the C terminus
With B1, in assay [1], the binding result was “binds”.

B2: fibrinogen-like domain (FBN) of Angptl2, FLAG-tagged (ligand)
chain: DKPSGPWRDCLQALEDGHDTSSIYLVKPENTNRLMQVWCDQRHDPGGWTVIQRRLDGSVNFFRNWETYKQGFGNIDGEYWLGLENIYWLTNQGNYKLLVTMEDWSGRKVFAEYASFRLEPESEYYKLRLGRYHGNAGDSFTWHNGKQFTTLDRDHDVYTGNCAHYQKGGWWYNACAHSNLNGVWYRGGHYRSRYQDGVYWAEFRGGSYSLKKVVMMIRPNPNTFH
notes: the whole Angptl2 entry is named; Migrates as a 37 kD monomer; also called FBN domain; fibrinogen domain; not shown: FLAG tag
Regarding B2, in assay [2], the binding result was “no binding”.

B3: full-length LILRB2 Y96A/G392D on 293T cells (receptor)
chain: QTGTIPKPTLWAEPDSVITQGSPVTLSCQGSLEAQEYRLYREKKSASWITRIRPELVKNGQFHIPSITWEHTGRAGCQYYSRARWSELSDPLVLVMTGAYPKPTLSAQPSPVVTSGGRVTLQCESQVAFGGFILCKEGEEEHPQCLNSQPHARGSSRAIFSVGPVSPNRRWSHRCYGYDLNSPYVWSSPSDLLELLVPGVSKKPSLSVQPGPVVAPGESLTLQCVSDVGYDRFVLYKEGERDLRQLPGRQPQAGLSQANFTLGPVSRSYGGQYRCYGAHNLSSECSAPSDPLDILITGQIRGTPFISVQPGPTVASGENVTLLCQSWRQFHTFLLTKAGAADAPLRLRSIHEYPKYQAEFPMSPVTSAHADTYRCYGSLNSDPYLLSHPSEPLELVVSGPSMGSSPPPTGPISTPGPEDQPLTPTGSDPQSGLGRHLGVVIGILVAVVLLLLLLLLLFLILRHRRQGKHWTSTQRKADFQHPAGAVGPEPTDRGLQWRSSPAADAQEENLYAAVKDTQPEDGVEMDTRAAASEAPQDVTYAQLHSLTLRRKATEPPPSQEREPPAEPSIYATLAIH
notes: also called Y96A combined with G392D
Take B3: the binding result in assay [3] is “no binding”.

B4: full-length LILRB2 Y96A/Y394A on 293T cells (receptor)
chain: QTGTIPKPTLWAEPDSVITQGSPVTLSCQGSLEAQEYRLYREKKSASWITRIRPELVKNGQFHIPSITWEHTGRAGCQYYSRARWSELSDPLVLVMTGAYPKPTLSAQPSPVVTSGGRVTLQCESQVAFGGFILCKEGEEEHPQCLNSQPHARGSSRAIFSVGPVSPNRRWSHRCYGYDLNSPYVWSSPSDLLELLVPGVSKKPSLSVQPGPVVAPGESLTLQCVSDVGYDRFVLYKEGERDLRQLPGRQPQAGLSQANFTLGPVSRSYGGQYRCYGAHNLSSECSAPSDPLDILITGQIRGTPFISVQPGPTVASGENVTLLCQSWRQFHTFLLTKAGAADAPLRLRSIHEYPKYQAEFPMSPVTSAHAGTARCYGSLNSDPYLLSHPSEPLELVVSGPSMGSSPPPTGPISTPGPEDQPLTPTGSDPQSGLGRHLGVVIGILVAVVLLLLLLLLLFLILRHRRQGKHWTSTQRKADFQHPAGAVGPEPTDRGLQWRSSPAADAQEENLYAAVKDTQPEDGVEMDTRAAASEAPQDVTYAQLHSLTLRRKATEPPPSQEREPPAEPSIYATLAIH
notes: also called Y96A combined with Y394A
For the molecule B4, in assay [3], the binding result is listed as “no binding”.

B5: LILRB2 Ig4 domain expressed on 293T cells (receptor)
chain: IRGTPFISVQPGPTVASGENVTLLCQSWRQFHTFLLTKAGAADAPLRLRSIHEYPKYQAEFPMSPVTSAHAGTYRCYGSLNSDPYLLSHPSEPLELVVSGPSMGSSPPPTGPISTPGPEDQPLTPTGSDPQSGLGRHL
notes: The range is stated for the chimeric reporter constructs; also called 4th Ig domain
Consider B5, for which the binding result in assay [4] is listed as “no binding”. For B6, in assay [5], the “decrease of Angptl2 binding relative to the wild-type protein” value was over 50%. Moreover, the “reduction of Angptl2 binding” value in assay [6], in assay [7] and in assay [8] was 50% throughout.

For the origin of these results see patent US20170260508A1 (FRED HUTCHINSON CANCER RESEARCH CENTER, published 2017).
